For nine substances, Kd results are on record in paper PMC9444907.

Like-named read-outs stand apart in the source and are kept apart here.

For assay [1], the target named is p107ΔL pocket domain (residues 389-972, Δ600-779, Δ888-923) (human). The assay is described as follows: ITC.
Assay [2] deals with p107 pocket domain M865V (human). Nature of the assay: ITC.
Assay [3] addresses human Rb pocket domain lacking the single internal loop (residues 380-787; Δ582-642) (human) (UniProt P06400). Nature of the assay: ITC.
Assay [4] addresses p107 pocket domain V939M (human). The assay is described as follows: ITC.
The target of assay [5] is Rb pocket domain (Homo sapiens) (UniProt P06400). The conditions noted are these: cited from earlier work.
Assay [6] shares this target. The conditions noted are these: cited from earlier work. This is another data set of the same source.

For “HDAC1 triple (3X) mutant peptide R413D/A415Y/E417Y”, the Kd in assay [1] stood at 105 nM.
For the substance human ARID4A LxCxE motif peptide, the Kd in assay [1] was found to be 1600 nM; in assay [2], 120 nM; in assay [3] it was 0.14 µM; in assay [4] it was 330 nM.
As to EID1 peptide E176R/E177R, the results for the Kd in assay [1] and in assay [3] were 14000 nM and 9 µM, respectively.
Consider HPV16 E7 peptide (from UniProt P03129), for which, in assay [5], the equilibrium dissociation constant (Kd) was 5 nM.
human HDAC1 LxCxE motif peptide: the equilibrium dissociation constant (Kd) in assay [1] was over 10000 nM.
As to human EID1 LxCxE motif peptide, the Kd in assay [1] was 7000 nM; in assay [3], 6 µM.
In the same order, the values of EID1 peptide G179Y/D181Y are 250 nM and 0.17 µM.
On to “PRDM2 IxCxE peptide (from UniProt Q13029)”, for which the Kd in assay [6] is 640 nM.
Substance ARID4A peptide E955R came in with a Kd in assay [1] of 2300 nM.
